# Patent US20030032582A1
# Experiments:
# Assay in all cases: cell-based or functional assay
# TCR Vβ5 (human) = biological target: TCR Vβ5 (human)
# TCR Vβ8 (human) = biological target: TCR Vβ8 (human)
# TCR Vβ2 (human) = biological target: TCR Vβ2 (human)
substance,measurement,setting,value
H-TSST1 (ligand),CD3^+ Blasts Binding Anti-Vβ (%),TCR Vβ5 (human),4.5%
same,"CD3^+ Blasts Binding Anti-Vβ, fold difference versus unstimulated controls",TCR Vβ5 (human),2 fold
same,CD3^+ Lymphocytes Binding Anti-Vβ (%),TCR Vβ5 (human),2%
same,"CD3^+ Lymphocytes Binding Anti-Vβ, fold difference versus unstimulated controls",TCR Vβ5 (human),0.9 fold
same,CD3^+ Blasts Binding Anti-Vβ (%),TCR Vβ8 (human),4.6%
same,"CD3^+ Blasts Binding Anti-Vβ, fold difference versus unstimulated controls",TCR Vβ8 (human),1.1 fold
same,CD3^+ Lymphocytes Binding Anti-Vβ (%),TCR Vβ8 (human),4.1%
same,"CD3^+ Lymphocytes Binding Anti-Vβ, fold difference versus unstimulated controls",TCR Vβ8 (human),1 fold
same,CD3^+ Blasts Binding Anti-Vβ (%),TCR Vβ2 (human),33%
same,"CD3^+ Blasts Binding Anti-Vβ, fold difference versus unstimulated controls",TCR Vβ2 (human),3.4 fold
same,CD3^+ Lymphocytes Binding Anti-Vβ (%),TCR Vβ2 (human),5.1%
same,"CD3^+ Lymphocytes Binding Anti-Vβ, fold difference versus unstimulated controls",TCR Vβ2 (human),0.5 fold
